Measured values taken from a protein production outcome set (Wang et al. 2014).

Assay: label from the status in PepcDB records
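Note: failed if final PepcDB status was selected cloned or expressed and not failed if soluble or beyond.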

Sequence | protein production
MDEGMQIVGAVSGLSTPFNQNVSLECYNGILSMLLNGAPLADILHALVLKIEDQRLGTHASVLLLSEDGKRVLTGAAPHLPDSYNQVIHGVEIGPEVGSCGTAAYTGQRVIVEDIEHHPYWALYKSFALVHGLRACWSEPIKDTQGKVLGTFAMYYKEIKSPTVADLTLIAEAARLASLAIERSRSLEFQRLAVKIFDRLPLALVITNASHSVLYANDAFKLMVCLQPDDILAFNPEQFFSPSEPHEIASLFNHLSEGKMWQGELVGLRNNGETFYLDLTVTVFRESHSADLGFAWLFSDVSERKKAAQLIKYQANNDSLTGLANRNALFRQIQELINADSLTPGFSFMLMDLDNFKQVNDTYGHDKGDVLLVQMVEQVKICLDPQAVFARLGGDEFAILLPGVVTQRELSQLADKINKQVYRRYELSHDKGVYSSVSIGIARFPEDALDLEQLLNCADQAMYISKANGRNRYHFFTEQMQQNAERIANLHTLLKQALEQNAFELYFQPIVDATTGLIVRAEVLLRWQHEGQFISPDEFIPIAENSGLIVSIGRCVRQAVMQTIVEMQALGWPMSLAINVSTFEFWSHELQDEFCDSFTDIIEGLGVEDFPYELITLEITESLLMKKHAHLIQVLNELRARGIKISLDDFGTGYSSLSYLANFPIDQIKIDKSFIDRLAEGERHLALIEAIVRLSHALNLRVTAEGVETQEQLQVMMDNHIQEIQGYLFYKPIPKAVFFELLAKQAVISPHSLEHHHHHH | failed
SLRTKSWTDDLKVCNQTGVGEAINQIYKDDGRRCEGYESRDKKCLCISDNNTSLYAILSGHNGVTVAENALQEMAAELLLGQLNVCNTDEAVKELIRQSFMSVEKGYFDSINPHVATKTAIQLHLSADGMNQYEISQQFENVLQKLDSLNNALSVGSSAVLALIHRSHLYLGNIGNCRALLCKTDEHDTLTVTQLSVDHNLLNAEEAARLFRLGLMAQNFEGVPLYSTRCIGNYLGKAGYKDCNFLSSATAEPVIFEPEIVGGIQITPACRFLVLMSSGLCRALHEIFPGDASTGNRELVRMISEEFQNQSTLGGVAQSVVHRIVQAHHDTYMQLVEEHRSVTFNSRDDVTLLIRNFNYA | not failed
MRQIPQNHIHTRSTPFWNKETAPAGIFERHLDKGTRPDVYPRLSVMQGAVKYLGYADEHCSEPEEIMVINAGEFGVFPPEKWHNIEVMTDDTYFNIDFFVAPEVLMEGATSRKVIHAGRELEHHHHHH | not failed
MQRLNLGCGQYPKAGFLNVDVDPLAKADVFHDLSSFPYPFEDARFDLVEMDHVLEHLPSPRDAMREIWRILKPGGTLRLRVPHFSRGFSHYDHKCGFDVTFPLYFDPTFPGGYTGIPFEHVQTRLVWFAQPWLKRQVLGNFAFNVGKMLGMVFDALGNIAPLATSRLFCFWVGGYEEITFELRRPTNTLEHHHHHH | not failed
MTEHSSDYYQRLVDESALEEFLTREIGPAETFDVARHEQGHSNETLFVTWGDRELVVRRPPPGQTAETAHDVLREYRVIDALQDTAVPVPPTVTACDDQTIIGSDFYVMARVEGTVIRDDEPARFGSDDARAAVGTELVDTLAAIHEVDPTAVGLSDLGRADGYAKRQVARWGKQLAWAFERTAESRTIPELERVGSWLQDECPDDHPKTLVHGDYKLDNVMFGPGDDPELAAVFDWEMATLGDPRADLGWLLSYWRDAKDPEPEIPDLAMEFIEAPGYLTRTDLVDRWEAQTGLTFEHERFYRTLAVYKLAALGEMFYRRYLEGNADDPFYPLMEDRVPALANRAVRIIEGDEPL | failed
MPSLLETKGPKITLGLDLRGGLNMLLGVQTDEALKNKYLSLASALEYNAKKQNILLKDIKSNLEGISFELLDEDEAKKLDALLLELQGHSQFEIKKEAGFYSVNLTPLEQEELRKNTILQVIGIIRNRLDQFGLAEPVVIQQGKEEISVQLPGIKTLEEERRAKDLISRSAHLQMMAVDEEHNKDAMKMTDLEAQKLGSVLLSDVEMGGKILLKAIPILDGEMLTDAKVVYDQNNQPVVSFTLDAQGAKIFGDFSGANVGKRMAIVLDNKVYSAPVIRERIGGGSGQISGNFSVAQASDLAIALRSGAMSAPIQVLEKRIIGPSLGKDSVKTSIIALVGGFILVMGFMVLYYSMAGVIACLALVVNLFLIVAVMAIFGATLTLPGMAGIVLTVGIAVDANIIINERIREVLRENEGIAKAIHLGYINASRAIFDSNITSLIASVLLYAYGTGAIKGFALTTGIGILASIITAIVGTQGIYQALLPKLTQTKSLYFWFGVNKRA | failed
MKSLLMRTGSMPVLQNRLISGGSSRKMTPISRTNSVESLSSYGERFAGGKISIEVKANVGMRRVLSESDVIRSERMLKRVGSKPSPARIPEDDEAGEEEIRFADGWGSMISGGLPVEEKCFTGGGVGGGSGYSGGYGNGGGGGYEDKSKIGDYYREMLRSNPNNSLLLMNYGKFLYEVEKDAEGAEEYYGRAILENPGDGEALSMYGRLIWETKRDEKRAQGYFDQAVNASPNDCMVLGSYARFMWEAEDDDDDDEEEEEEEWMAASPLMVSAV | failed
MDTWKVGPVELKSRLILGSGKYEDFGVMREAIAAAKAEVVTVSVRRVELKAPGHVGLLEALEGVRLLPNTAGARTAEEAVRLARLGRLLTGERWVKLEVIPDPTYLLPDPLETLKAAERLIEEDFLVLPYMGPDLVLAKRLAALGTATVMPLAAPIGSGWGVRTRALLELFAREKASLPPVVVDAGLGLPSHAAEVMELGLDAVLVNTAIAEAQDPPAMAEAFRLAVEAGRKAYLAGPMRPREAASPSSPVEGVPFTPTGPRPGRGPQ | not failed
MYIPNAFRESDTHNLQEHMDKTRLAILVTQGDDGLHATHLPLLLRSDEGPYGTLYGHMAKANPQWQQLNADAEAMVIFPGEDAYVSPSFYPSKAEHGKVVPTWNYLAVHAYGQAECFTDPDRLHQLLNDLTDRHESSRAQPWSINDAPADYIAKMLGAIVGFSIPVQRL | failed
MRIFKLSPDEEERFFDNLPRFLFYYLFLFTIFWFGLTQKSAEEIRESILSGNVSPDFWRSTLVVLLLLAITDAYLMRKGDTNWNTPGAALFMLFGFFIMLLVVMYVGRASILFVVSLFLIYINTLIKTKEELRKKNH | failed
MKKFQEMCQEEFEKIELMARGGQKIVFDGVHNSYGETVIKLYFQLNDPRSLREIQIERDLNLSMVPKIYETGTIEYEGTETLYIIEQKVKGTELRKVLESGKRFSLEEAVTFLEQGLEFIACIENKGIVHRDIKPENIIRADDGRIFFLDFGIARILGADSLTRTGAMMGPHTPGYAAPEQFNNLKKEIDSRADIFSLGVVTYECITGKNPFREGSINALEVLQKTETITPVQYSIKGDTQSQFMALLGAMMGKYPSRRPRTAKQAIDWLKVAKKTFVYE | failed
MYPKQFLKFGETSLFQETVLRCLEVSDISEVFVVTNEAQKFFVIGQIKEAGYSIPPENILIEPEGKNTLPAIFFGMKEIEKKFGDSIVGVFSSDHVLDRAAMATISSAENLASDYLVTFGVVPTFPHTGYGYIKASEACSPGYRVSEFREKPDFETAKKYIEEGCLWNSGMFLFETRLFFEEARKHAPSVYGCFEKEGDINQIYECVDNISIDYGIMEKSDKVAVVRLDHKWSDLGNFAAIYDELEKDSVGNVIHDCDPMLLNSDGNLVYSRCGKIVSLIDVKDMVVVDTSDALLICPKSSSQKVKEIVSELKGRKDERAFIGQTVYRPWGSYTLLDASPGHKIKNITVLSDHKLSLQLHYHRSEHWVVVKGMACVEVDGKQFFLGPGESTFIRAGQKHRLSNPGKLPLEIIEVQLGELVDEEDIVRFDDVYGRRLEHHHHHH | not failed
MPDKPMQYVISRLIDNRTRTRILAPVSALTVKAAREKATGQLQAWREEHTQPSMSASPRFDVFVEQTWKPMIFEHWKPSTKRSVLPALNRRLLAHFGRYPLHMINHKMVQAWFDEISKTRKGAANRNLDTLQSVFKLALRQGHCLTNPCIGIRQNKRRVLNRFLSVAEMQRLSVALDECEAVGGSIAQCADVLRLLLLTGCRLSEITFLKGEYVRGNELHLPDSKTGAKVLYIGQAAVDILSRYHCKANTELFPMKQGASTSLVQSLWLRLRKQIGVEDVRLHDLRHTFASYAVMDGCSIPMVASLLGHKKVTMTLRYTHVGDDSVEQASEVIGAVFKGIFTQPEPPKPLIPRTNETPMPAVKVKQKRLPERKPTAKPKPKAVKKVKQVKPLQKLPTLTKEELRAIQRFRDSELFDRVKIG | failed
GQSEDGLSVPKPLGIVEPWQMWLQRWVPGQPATELLITRPDLPEKIAALAHKIHSHSVPTTKTHTIATELQILGDRLREFSHQQPQWQTQIQHFIAQSEQLGEVLNKYPRPTTTIHRDFYPDQILVDGNHLWLVDLDLYCKGDPAVDLGNFIAHMTEYSLRTWG | failed
VTDVLLCVGNSMMGDDGAGPLLAEKCAAAPKGNWVVIDGGSAPENDIVAIRELRPTRLLIVDATDMGLNPGEIRIIDPDDIAEMFMMTTHNMPLNYLIDQLKEDIGEVIFLGIQPDIVGFYYPMTQPIKDAVETVYQRLEGWEGNGGFAQLAVEEE | not failed
MGHPPQLPGGRCPMSQTMDFDTLRRAMADNYEQPEGPARNARAEQLLTEAEKLNIPLAVIEALGHQLKVYNYSSEKDKMFVPFARLLRMWDERPEDFDEYEIHSLHWVFKWMSAGMLGQPHIPLASIEKWLGEMEHRYRLAGHSERAVRSAEFSVANHIGDLARAERAYAAWLAADRDSMADCHACELHDQGWWQARKGADADALEVWRPVVEGEYVCAHEPHAILASSLVPLLRLGRLDEARAHHLRGFRLIRPMESMRGAYADHVEFCALSGNEARALELLAERPAYFTDSGEPRSKLDFMAVVALLMDRLVELGLGEQTVPGPAGRVWSARELAAHARAEALALAARFDERNGTAHVSERARERMDRRPLVDRLPLGVRSTRPAPTAPRPPAAPDSAPAPAVERDLRDVLAEARGRSDALRPDAMDAWAAVARAAGDHELDARDRAEIADHEAMSRGPEGAPLFERAAELYAEAGDPGEALAARARGAYVRALTGHSDDALRTINDLHRQVRALFAKDGTGVRQTAAVLVGRARILVHRVHETEGAGTTVAAAEEAVRELLEFAEPHIAQVRLASRAAEARAMLGELAALTGDAMTAAELLAQAAEGFLAAGLPWFAVEYEARLAGIARELGDAVEAERAARSALEHGVEYLEPAGQAQLHLQLAEVLGTTGQFGPAAEHALEAAHWADEAGEGPTFGAWARHQLGGFLLQQGRWAEAAEVLESALPDLTAETHGDGALVQTQWWLGDCHTELGEHREAAERWLRAAEIARHWPEQRDHAMLAHLAAEALGHAGLPAEADRAYTRAGDLWRDLGNVHGLARALRARAWLAAREEDELDPARELMAQAVRECEAALEGATEGEDGARERLVAELGHTHRQFGDLVARSVQDGDRGADFQGAFEEALGHVTRAVAVFAPLGASALDLRTGAELAAGWLEADLHRPAEATARARAVLAAYANRQEADDETARARCAEADRMLELLGTRTGQ | failed
MIQITVVQIDNYGPWTVTPNPRRESDLQALQSRLYCDMNLQFGAHKGLAFYTRFDNIIAITNGIDLETHKRIQNSVKNRYPFTVSMAVASAETAYEAQKLATKTIQEYGSAQDDVRKEVLDVANEFVSNGYVQLAHVDINDITGKLTDLETAYDTYLSVQKTKLKLMEELKKYDSLGFFIGGDNFMCPCNGMNEKDFLCMFEDIKDSCGIELKAGIGIGKTAEDASNLADIGLEVIREGKTDSQVYTLKQEIDEQKNVPYNYMCPI | failed
MAYTDPAQRNQVTVLQVGYSRQEEGDESAMRANCTCTLVRCRDGTNIIVDTLTAWDGDHLRSLLGQQGLGVDDIHVVVCSHGHSDHIGCNYLFQKARMHLVGACASHHDLYMDHLGSGNPDEQLALDSNAEVVVRRSPGHTLSCVSVLVENSQLGGRVGITGDLFERREDIDDENIWMDAGSENEKVQREERSKMAQLCEFIIPGHGPMFSVTQSMRCKLKEDATSNT | failed
MIKFMSIASGSSGNCYYLSNGNQALLIDAGIPLRSISKALKDHQLPIEGNVVGVLVTHDHADHIRTIGCLGEKFHLPVFATERVHNGINSSRYMDHLPLLSRRNILQEETFRLAGFDITAFPIPHDATENVGYHITAPGFSFTLCTDVGHITDTISHYASKADYLVMEANYDCEMLLSGPYPEFLKERVSGPNGHLSNQETGDFLARTFHPGMKHVWLCHLSKDNNHPDLCWKSIEYRLFSEGIRVGKDMELTVLKRTSPSSLYTLLEDLEHHHHHH | not failed
